This is an account of results in EP3632462A1.

Assay [1] addresses IgG1-005-E345R/E430G/S440K (human). As to the kind of experiment: HP-SEC in PBS pH 7.4, equimolar mixture of the two antibodies.
Assay [2] concerns the target IgG1-005-E345R/E430G/Y436I/S440K (human). The description is as above.
Assay [3] has as its target FcyRIIIa receptor, V158 (high affinity) variant (UniProt P08637). In words: cell-based or functional assay.
In assay [4] the target is Protein A (Staphylococcus aureus) (UniProt P38507). In words: ratio of the concentrations by Octet protein A and by A280. In general terms: In BLI a coated tip is dipped into the sample, and binding shifts an interference pattern.
Assay [5] concerns the target Protein A column (HiTrap MabSelectSuRe). In words: 1.0 mL HiTrap MabSelectSuRe column, pH 5.0 against neutral pH.
Assay [6] deals with IgG1-005-E345R/E430G/S440Y (human). As to the kind of experiment: HP-SEC with multiple angle light scattering (MALS), self-association. A general note: Size exclusion chromatography separates by hydrodynamic size, large species first.
Assay [7] has the same target. In words: dynamic light scattering, 2.86 mg/mL in PBS pH 7.4, self-association.
A further assay addresses C1q (human) (UniProt P02745). As to the kind of experiment: ELISA: antibody dilution series coated, 3% pooled human serum as source of C1q, anti-C1q detection. For orientation: In an ELISA, binding on a coated surface is turned into a signal by an enzyme label.
Assay [8] deals with Protein A (Staphylococcus aureus) (UniProt P38507). As to the kind of experiment: apparent IgG concentration on Octet QK protein A sensortips against an IgG standard curve; A280 gave 2905 µg/ml.
In assay [9] the target is Protein A column (HiTrap MabSelectSuRe). In words: saturated 1.0 mL HiTrap MabSelectSuRe column loaded at pH 5.0 (antibody monomeric), A280 of the dialyzed eluate.
Assay [10] has the same target. As to the kind of experiment: saturated 1.0 mL HiTrap MabSelectSuRe column loaded at neutral pH (hexamerization allowed), A280 of the dialyzed eluate.

Chain of FcyRIIIa receptor, V158 (high affinity) variant (P08637 other isoform, or with tags, fused parts or gaps mutant limits assumed): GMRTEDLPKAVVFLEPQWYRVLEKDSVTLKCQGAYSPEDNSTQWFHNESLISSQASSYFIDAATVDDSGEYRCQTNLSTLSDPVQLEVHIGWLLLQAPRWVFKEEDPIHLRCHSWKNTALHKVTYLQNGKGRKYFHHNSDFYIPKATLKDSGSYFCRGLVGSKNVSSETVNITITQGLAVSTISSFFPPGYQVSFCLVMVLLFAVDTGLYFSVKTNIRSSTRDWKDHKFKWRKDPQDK
Chain of C1q (human) (P02745 23-245 limits assumed, chain 1 of 3): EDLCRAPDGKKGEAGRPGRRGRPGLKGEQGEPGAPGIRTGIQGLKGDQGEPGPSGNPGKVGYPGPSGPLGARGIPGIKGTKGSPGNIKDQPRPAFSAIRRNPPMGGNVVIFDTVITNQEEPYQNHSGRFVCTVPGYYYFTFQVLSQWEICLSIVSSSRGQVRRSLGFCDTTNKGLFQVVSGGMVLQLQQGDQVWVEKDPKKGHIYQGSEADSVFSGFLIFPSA
Chain of C1q (human) (P02746 28-253 limits assumed, chain 2 of 3, further chain): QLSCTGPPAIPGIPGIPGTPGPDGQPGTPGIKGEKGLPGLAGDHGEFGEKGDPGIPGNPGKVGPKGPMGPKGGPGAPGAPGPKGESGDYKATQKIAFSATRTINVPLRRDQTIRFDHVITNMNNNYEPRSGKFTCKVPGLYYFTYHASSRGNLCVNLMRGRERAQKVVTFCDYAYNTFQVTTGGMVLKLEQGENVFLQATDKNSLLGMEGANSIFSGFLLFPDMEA
Chain of C1q (human) (P02747 29-245 limits assumed, chain 3 of 3, further chain): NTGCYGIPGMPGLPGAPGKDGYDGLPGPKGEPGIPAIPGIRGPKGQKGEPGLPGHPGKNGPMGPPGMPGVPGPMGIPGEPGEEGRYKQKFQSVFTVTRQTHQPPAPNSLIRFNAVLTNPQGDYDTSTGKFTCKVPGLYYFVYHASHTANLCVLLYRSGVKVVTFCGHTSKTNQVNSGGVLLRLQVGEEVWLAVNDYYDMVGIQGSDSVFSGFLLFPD

Regarding “IgG1-005-E345R/E430G/K439E/S440Y (antibody)”, the results for the multimers (HP-SEC) in assay [1] and in assay [2] were 65% and 93%, respectively.
The EC50 is the concentration at which the effect is half-maximal. In [3], IgG1-005-E345R/E430G/S440Y (antibody) returned an EC50 (ng/mL), ADCC reporter assay with Raji target cells of 36 ng/mL and a Maximal signal (RLU), ADCC reporter assay with Raji target cells of 394000 RLU. The A280/Protein A x 100 (%) in [4] is 71%. This substance yielded an increase of protein yield, binding at pH 5.0 against neutral pH in [5] of 36%. Moreover, in [6], the apparent average MW of the multimeric peak was 772 kDa and the monomeric subunits per complex (monomeric subunits) was 5.4. In assay [7], the apparent MW in solution amounted to 876 kDa and the monomeric subunits per complex (monomeric subunits) worked out at 6.17. The substance further registered an EC50 with C1q (human) of 0.52 µg/mL. Further, the Octet-Protein A in assay [8] amounted to 2050 µg/mL. Besides, the yield of Protein A purification at 1.0 mL scale in [9] is 29.1 mg. The substance also showed a yield of Protein A purification at 1.0 mL scale in assay [10] of 21.4 mg.
